The values that follow are results of earlier work, collected in article PMC12759081.

The series concerns the target PDS5B (Homo sapiens) (UniProt Q9NTI5). Kind of series: ITC. (In general: In ITC the heat of successive injections is recorded.)

Chain of PDS5B (Homo sapiens) (Q9NTI5 whole entry): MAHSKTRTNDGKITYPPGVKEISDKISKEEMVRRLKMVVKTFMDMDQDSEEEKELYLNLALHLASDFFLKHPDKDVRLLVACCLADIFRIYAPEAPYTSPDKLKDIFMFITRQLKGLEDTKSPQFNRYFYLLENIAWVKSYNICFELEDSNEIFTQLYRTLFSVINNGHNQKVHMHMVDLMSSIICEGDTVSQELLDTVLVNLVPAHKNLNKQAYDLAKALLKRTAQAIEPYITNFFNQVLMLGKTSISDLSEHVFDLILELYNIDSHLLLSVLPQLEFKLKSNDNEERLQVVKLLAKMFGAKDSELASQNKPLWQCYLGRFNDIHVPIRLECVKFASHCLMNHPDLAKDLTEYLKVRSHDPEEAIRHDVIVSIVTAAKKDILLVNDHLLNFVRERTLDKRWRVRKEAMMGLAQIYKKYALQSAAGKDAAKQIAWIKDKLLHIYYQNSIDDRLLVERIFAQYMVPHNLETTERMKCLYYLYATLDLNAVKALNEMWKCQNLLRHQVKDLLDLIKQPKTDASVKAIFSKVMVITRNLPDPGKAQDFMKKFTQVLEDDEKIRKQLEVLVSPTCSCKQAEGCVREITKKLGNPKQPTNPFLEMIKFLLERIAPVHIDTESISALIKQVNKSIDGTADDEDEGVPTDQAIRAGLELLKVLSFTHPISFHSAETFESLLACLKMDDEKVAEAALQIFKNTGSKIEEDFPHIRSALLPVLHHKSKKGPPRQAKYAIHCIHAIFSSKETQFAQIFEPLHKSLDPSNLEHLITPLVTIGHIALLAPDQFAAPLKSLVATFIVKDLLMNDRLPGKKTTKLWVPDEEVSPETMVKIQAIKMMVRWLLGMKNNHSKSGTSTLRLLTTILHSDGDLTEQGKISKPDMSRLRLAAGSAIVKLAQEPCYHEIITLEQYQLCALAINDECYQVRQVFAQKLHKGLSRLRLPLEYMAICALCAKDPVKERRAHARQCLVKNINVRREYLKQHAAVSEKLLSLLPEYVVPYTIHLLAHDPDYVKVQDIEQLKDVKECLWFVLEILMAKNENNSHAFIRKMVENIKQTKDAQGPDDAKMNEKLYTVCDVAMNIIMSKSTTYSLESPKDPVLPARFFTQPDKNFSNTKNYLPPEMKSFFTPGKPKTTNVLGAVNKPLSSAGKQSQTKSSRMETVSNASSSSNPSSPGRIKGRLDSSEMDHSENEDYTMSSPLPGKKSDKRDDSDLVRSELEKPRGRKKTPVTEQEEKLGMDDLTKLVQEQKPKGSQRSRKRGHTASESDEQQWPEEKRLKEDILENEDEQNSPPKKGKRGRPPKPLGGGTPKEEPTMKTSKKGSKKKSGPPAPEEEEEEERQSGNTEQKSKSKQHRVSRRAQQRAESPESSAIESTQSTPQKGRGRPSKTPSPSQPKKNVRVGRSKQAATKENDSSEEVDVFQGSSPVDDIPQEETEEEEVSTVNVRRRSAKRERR
Chain of Wapl (Q7Z5K2 whole entry): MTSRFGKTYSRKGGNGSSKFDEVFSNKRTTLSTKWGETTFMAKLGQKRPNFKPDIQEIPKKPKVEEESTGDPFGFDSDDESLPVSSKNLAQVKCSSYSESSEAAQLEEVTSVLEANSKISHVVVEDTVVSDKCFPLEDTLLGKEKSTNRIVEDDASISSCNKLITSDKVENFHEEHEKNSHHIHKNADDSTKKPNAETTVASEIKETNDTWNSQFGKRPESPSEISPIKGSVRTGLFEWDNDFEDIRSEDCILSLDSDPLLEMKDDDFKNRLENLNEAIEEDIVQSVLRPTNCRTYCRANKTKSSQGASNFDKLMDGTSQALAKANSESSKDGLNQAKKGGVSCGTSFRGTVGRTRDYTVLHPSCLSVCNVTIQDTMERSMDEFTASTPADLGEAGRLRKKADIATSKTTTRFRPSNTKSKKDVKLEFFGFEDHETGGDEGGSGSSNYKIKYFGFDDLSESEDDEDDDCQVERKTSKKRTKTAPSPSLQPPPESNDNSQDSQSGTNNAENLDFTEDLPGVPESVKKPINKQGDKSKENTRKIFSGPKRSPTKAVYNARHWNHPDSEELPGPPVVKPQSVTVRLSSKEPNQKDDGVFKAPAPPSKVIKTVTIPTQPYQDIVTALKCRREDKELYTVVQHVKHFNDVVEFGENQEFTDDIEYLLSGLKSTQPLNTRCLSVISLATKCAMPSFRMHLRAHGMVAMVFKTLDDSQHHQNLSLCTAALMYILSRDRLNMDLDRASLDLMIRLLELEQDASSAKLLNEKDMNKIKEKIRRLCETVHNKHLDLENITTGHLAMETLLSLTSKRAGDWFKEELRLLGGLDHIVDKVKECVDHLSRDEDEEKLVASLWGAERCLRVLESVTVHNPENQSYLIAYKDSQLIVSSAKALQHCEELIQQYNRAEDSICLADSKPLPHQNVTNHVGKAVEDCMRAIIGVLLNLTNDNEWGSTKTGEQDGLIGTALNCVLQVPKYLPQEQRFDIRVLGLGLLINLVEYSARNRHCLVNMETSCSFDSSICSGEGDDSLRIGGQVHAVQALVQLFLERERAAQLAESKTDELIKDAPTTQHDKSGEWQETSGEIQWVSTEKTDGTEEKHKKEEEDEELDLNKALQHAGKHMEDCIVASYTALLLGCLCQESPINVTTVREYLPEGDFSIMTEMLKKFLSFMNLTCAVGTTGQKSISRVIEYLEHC

For Wapl (from UniProt Q7Z5K2), the dissociation constant (Kd) (usually the equilibrium constant for the complex coming apart) is 6 µM.
